According to the supplement of paper PMC9112550, “Optimization of the antimicrobial peptide Bac7 by deep mutational scanning” (BMC Biology, 2022):

Tested on: Escherichia coli TOP10
Test: shrunken log2 fold change of peptide-encoding DNA abundance (4.5 h post-induction vs induction); higher = less antimicrobial activity (less host growth inhibition)
Conditions: time post-induction: 4.5 h; library: site-saturation at positions 5, 18, 19, 20
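Note: peptides expressed intracellularly from a pBAD plasmid library in pooled LB shake-flask culture, induced with 0.3% L-arabinose, DNA abundance read by NGS, three biological replicates, DESeq2 with apeglm shrinkage.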

Row | Sequence | shrunken log2 fold change
1 | RRIRTRPPRLPRPRPRPIGHPRP | -0.111
2 | RRIRQRPPRLPRPRPRPMTCPRP | 0.0215
3 | RRIRPRPPRLPRPRPRPIDYPRP | -0.13
4 | RRIRPRPPRLPRPRPRPLDAPRP | 0.131
5 | RRIRSRPPRLPRPRPRPRTYPRP | -0.452
6 | RRIRCRPPRLPRPRPRPWTTPRP | -0.138
7 | RRIRARPPRLPRPRPRPYAAPRP | 0.375
8 | RRIRDRPPRLPRPRPRPQMFPRP | -0.0311
9 | RRIRNRPPRLPRPRPRPESLPRP | 0.0505
10 | RRIRDRPPRLPRPRPRPWKYPRP | -0.331
11 | RRIRQRPPRLPRPRPRPAQNPRP | 0.231
12 | RRIRIRPPRLPRPRPRPVEHPRP | 0.0873
13 | RRIRERPPRLPRPRPRPNERPRP | -0.105
14 | RRIRHRPPRLPRPRPRPMMHPRP | 0.117
15 | RRIRFRPPRLPRPRPRPHFMPRP | -0.538
16 | RRIRGRPPRLPRPRPRPRCSPRP | 0.415
17 | RRIRARPPRLPRPRPRPDKSPRP | -0.169
18 | RRIRCRPPRLPRPRPRPNESPRP | -0.00497
19 | RRIRERPPRLPRPRPRPNGPPRP | -0.0578
20 | RRIRERPPRLPRPRPRPWSGPRP | -0.48
21 | RRIRFRPPRLPRPRPRPQSDPRP | 0.0151
22 | RRIRTRPPRLPRPRPRPSVMPRP | -0.372

Row | Sequence | shrunken log2 fold change
23 | RRIRNRPPRLPRPRPRPRFFPRP | -0.0927
24 | RRIRLRPPRLPRPRPRPQKRPRP | 0.0648
25 | RRIRGRPPRLPRPRPRPNRGPRP | -0.0157
26 | RRIRNRPPRLPRPRPRPGFIPRP | 0.0474
27 | RRIRWRPPRLPRPRPRPVIEPRP | 0.0398
28 | RRIRHRPPRLPRPRPRPFYDPRP | -0.837
29 | RRIRARPPRLPRPRPRPMMFPRP | 0.166
30 | RRIRERPPRLPRPRPRPWMQPRP | -0.327
31 | RRIRNRPPRLPRPRPRPQIVPRP | -0.0891
32 | RRIRLRPPRLPRPRPRPGLAPRP | 0.164
33 | RRIRNRPPRLPRPRPRPFHAPRP | -0.0245
34 | RRIRRRPPRLPRPRPRPCREPRP | 0.0134
35 | RRIRTRPPRLPRPRPRPRYYPRP | -0.112
36 | RRIRKRPPRLPRPRPRPGQGPRP | 0.205
37 | RRIRDRPPRLPRPRPRPKWGPRP | 0.105
38 | RRIRLRPPRLPRPRPRPYDHPRP | -0.165
39 | RRIRTRPPRLPRPRPRPILDPRP | 0.0371
40 | RRIRDRPPRLPRPRPRPFTEPRP | -0.165
41 | RRIRFRPPRLPRPRPRPVAIPRP | -0.0527
42 | RRIRVRPPRLPRPRPRPPAVPRP | 0.523
43 | RRIRWRPPRLPRPRPRPETDPRP | 0.773
44 | RRIRGRPPRLPRPRPRPQCPPRP | 0.337

Row | Sequence | shrunken log2 fold change
45 | RRIRNRPPRLPRPRPRPDGSPRP | 0.0143
46 | RRIRDRPPRLPRPRPRPPTKPRP | 0.00654
47 | RRIRMRPPRLPRPRPRPRILPRP | 0.0948
48 | RRIRIRPPRLPRPRPRPLFTPRP | -0.374
49 | RRIRHRPPRLPRPRPRPHIGPRP | -0.0123
50 | RRIRGRPPRLPRPRPRPQDAPRP | 0.832
51 | RRIRDRPPRLPRPRPRPHSMPRP | -0.293
52 | RRIRARPPRLPRPRPRPLCSPRP | 0.197
53 | RRIRHRPPRLPRPRPRPTPMPRP | 0.0946
54 | RRIRCRPPRLPRPRPRPWFLPRP | -0.479
55 | RRIRRRPPRLPRPRPRPMTAPRP | 0.0357
56 | RRIRPRPPRLPRPRPRPYTSPRP | -0.261
57 | RRIRMRPPRLPRPRPRPRPNPRP | 0.903
58 | RRIRVRPPRLPRPRPRPHDSPRP | 0.0311
59 | RRIRQRPPRLPRPRPRPEAMPRP | 0.00408
60 | RRIRTRPPRLPRPRPRPQMLPRP | -0.0274
61 | RRIRFRPPRLPRPRPRPRHRPRP | 0.195
62 | RRIRKRPPRLPRPRPRPTCCPRP | 0.0692
63 | RRIRLRPPRLPRPRPRPIEDPRP | 0.0562
64 | RRIRLRPPRLPRPRPRPGAWPRP | 0.0481
65 | RRIRSRPPRLPRPRPRPLGPPRP | 0.0761
66 | RRIRLRPPRLPRPRPRPMVKPRP | -0.147

Row | Sequence | shrunken log2 fold change
67 | RRIRMRPPRLPRPRPRPWLIPRP | 0.0295
68 | RRIRARPPRLPRPRPRPMLQPRP | 0.454
69 | RRIRKRPPRLPRPRPRPKDAPRP | -0.0585
70 | RRIRERPPRLPRPRPRPGHQPRP | -0.236
71 | RRIRPRPPRLPRPRPRPNRVPRP | -0.275
72 | RRIRRRPPRLPRPRPRPMIMPRP | -0.323
73 | RRIRGRPPRLPRPRPRPNYMPRP | -0.0439
74 | RRIRFRPPRLPRPRPRPDYRPRP | -0.0359
75 | RRIRHRPPRLPRPRPRPGRRPRP | 0.525
76 | RRIRARPPRLPRPRPRPFHVPRP | 0.00498
77 | RRIRLRPPRLPRPRPRPILFPRP | -0.0559
78 | RRIRTRPPRLPRPRPRPYYQPRP | -0.122
79 | RRIRTRPPRLPRPRPRPYQYPRP | -0.546
80 | RRIRARPPRLPRPRPRPRDGPRP | 1.3
81 | RRIRWRPPRLPRPRPRPEPGPRP | 0.43
82 | RRIRVRPPRLPRPRPRPSLNPRP | -0.416
83 | RRIRNRPPRLPRPRPRPFNLPRP | -0.207
84 | RRIRTRPPRLPRPRPRPVKQPRP | -0.00945
85 | RRIRGRPPRLPRPRPRPGESPRP | 0.584
86 | RRIRMRPPRLPRPRPRPSRAPRP | 1.18
87 | RRIRFRPPRLPRPRPRPACNPRP | -0.26
88 | RRIRARPPRLPRPRPRPTQPPRP | 0.228

Row | Sequence | shrunken log2 fold change
89 | RRIRGRPPRLPRPRPRPEFWPRP | 2.24
90 | RRIRCRPPRLPRPRPRPEGDPRP | 0.193
91 | RRIRDRPPRLPRPRPRPSKQPRP | -0.257
92 | RRIRWRPPRLPRPRPRPMHPPRP | 0.224
93 | RRIRNRPPRLPRPRPRPEVLPRP | -0.212
94 | RRIRWRPPRLPRPRPRPMANPRP | 0.21
95 | RRIRDRPPRLPRPRPRPIDAPRP | -0.264
96 | RRIRDRPPRLPRPRPRPPTRPRP | 0.596
97 | RRIRDRPPRLPRPRPRPLLCPRP | 0.503
98 | RRIRGRPPRLPRPRPRPPWMPRP | 0.373
99 | RRIRERPPRLPRPRPRPHYQPRP | -0.267
100 | RRIRQRPPRLPRPRPRPDCPPRP | -0.283
101 | RRIRLRPPRLPRPRPRPLNLPRP | -0.381
102 | RRIRHRPPRLPRPRPRPEDRPRP | -0.0767
103 | RRIRFRPPRLPRPRPRPETLPRP | 0.0591
104 | RRIRRRPPRLPRPRPRPGWNPRP | 0.257
105 | RRIRSRPPRLPRPRPRPQRPPRP | 0.0966
106 | RRIRMRPPRLPRPRPRPMYCPRP | -0.0254
107 | RRIRIRPPRLPRPRPRPCLLPRP | -0.495
108 | RRIRIRPPRLPRPRPRPCHMPRP | -0.188
109 | RRIRNRPPRLPRPRPRPTSVPRP | 0.184
